We go through one protein from paper PMC4896102, “Biosynthesis of the polymeric gel-forming mucin MUC5B” (American Journal of Physiology - Lung Cellular and …, 2016).

The data set deals with the molecule itself. Put plainly: SEC-MALS; SEC-MALLS of purified CT5B, performed as described in ref. 18; light scattering and refractive index.

B1: recombinant MUC5B COOH-terminus (CT5B; D4-B-C-CK) (domain or fragment, human, UniProt Q9HC84 4955-5762, looked up)
chain: GEVIYNKTDRAGCHFYAVCNQHCDIDRFQGACPTSPPPVSSAPLSSPSPAPGCDNAIPLRQVNETWTLENCTVARCVGDNRVVLLDPKPVANVTCVNKHLPIKVSDPSQPCDFHYECECICSMWGGSHYSTFDGTSYTFRGNCTYVLMREIHARFGNLSLYLDNHYCTASATAAAARCPRALSIHYKSMDIVLTVTMVHGKEEGLILFDQIPVSSGFSKNGVLVSVLGTTTMRVDIPALGVSVTFNGQVFQARLPYSLFHNNTEGQCGTCTNNQRDDCLQRDGTTAASCKDMAKTWLVPDSRKDGCWAPTGTPPTASPAAPVSSTPTPTPCPPQPLCDLMLSQVFAECHNLVPPGPFFNACISDHCRGRLEVPCQSLEAYAELCRARGVCSDWRGATGGLCDLTCPPTKVYKPCGPIQPATCNSRNQSPQLEGMAEGCFCPEDQILFNAHMGICVQACPCVGPDGFPKFPGERWVSNCQSCVCDEGSVSVQCKPLPCDAQGQPPPCNRPGFVTVTRPRAENPCCPETVCVCNTTTCPQSLPVCPPGQESICTQEEGDCCPTFRCRPQLCSYNGTFYGVGATFPGALPCHMCTCLSGDTQDPTVQCQEDACNNTTCPQGFEYKRVAGQCCGECVQTACLTPDGQPVQLNETWVNSHVDNCTVYLCEAEGGVHLLTPQPASCPDVSSCRGSLRKTGCCYSCEEDSCQVRINTTILWHQGCETEVNITFCEGSCPGASKYSAEAQAMQHQCTCCQERRVHEETVPLHCPNGSAILHTYTHVDECGCTPFCVPAPMAPPHTRGFPAQEATAV
modifications: N-glycans (removed by PNGase F; positions not stated)
notes: Present as a mixture of monomers and disulfide-stabilised dimers; the proportions varied between preparations; also called MUC5B COOH-terminal construct; COOH-terminal region of MUC5B
In general, stoichiometry N refers to the number of molecules, sites or subunits per partner or assembly. In the case of B1, the “stoichiometry N” value was determined as 2.
